Among the data in PMC3472031 are Kd values, retold here.

Assay [1] concerns the target EspFU R475 R475 (fifth 47-residue repeat) (Escherichia coli O157:H7), P0DJ88. Put plainly: ITC.
In assay [2] the target is EspFU R2 20-residue peptide from second repeat (Escherichia coli O157:H7), P0DJ88. Put plainly: ITC.

“And” between values parts separate entries of the source, which are not always exact repeats. Equal entries are not always repeated.

B1: N-WASP GBD GBD, O00401 (protein)
chain: KRLTKADIGTPSNFQHIGHVGWDPNTGFDLNNLDPELKNLFDMCGISEAQLKDRETSKVIYDFIEKTGGVEAVKNELRR
Turning to B1, in assay [1], the Kd was 40 nM and 70 nM.

B2: IRTKS SH3 SH3, Q9UHR4 (protein)
chain: LNMMKKQKVKTIFPHTAGSNKTLLSFAQGDVITLLIPEEKDGWLYGEHDVSKARGWFPSSYTKLLEENET
Turning to B2, in assay [2], the Kd amounted to 1100 nM.
